Laboratory results: patent US20140212406A1 (INSTITUT NATIONAL DE LA SANTE ET DE LA RECHERCHE MEDICALE …, published 2014)
Changes are numbered by the printed parent chain. In names and notes the source's numbering stands.

B1: fibrin (other)
chain 1: GPRVVERHQSACKDSDWPFCSDEDWNYKCPSGCRMKGLIDEVNQDFTNRINKLKNSLFEYQKNNKDSHSLTTNIMEILRGDFSSANNRDNTYNRVSEDLRSRIEVLKRKVIEKVQHIQLLQKNVRAQLVDMKRLEVDIDIKIRSCRGSCSRALAREVDLKDYEDQQKQLEQVIAKDLLPSRDRQHLPLIKMKPVPDLVPGNFKSQLQKVPPEWKALTDMPQMRMELERPGGNEITRGGSTSYGTGSETESPRNPSSAGSWNSGSSGPGSTGNRNPGSSGTGGTATWKPGSSGPGSTGSWNSGSSGTGSTGNQNPGSPRPGSTGTWNPGSSERGSAGHWTSESSVSGSTGQWHSESGSFRPDSPGSGNARPNNPDWGTFEEVSGNVSPGTRREYHTEKLVTSKGDKELRTGKEKVTSGSTTTTRRSCSKTVTKTVIGPDGHKEVTKEVVTSEDGSDCPEAMDLGTLSGIGTLDGFRHRHPDEAAFFDTASTGKTFPGFFSPMLGEFVSETESRGSESGIFTNTKESSSHHPGIAEFPSRGKSSSYSKQFTSSTSYNRGDSTFESKSYKMADEAGSEADHEGTHSTKRGHAKSRPV
chain 2: GHRPLDKKREEAPSLRPAPPPISGGGYRARPAKAAATQKKVERKAPDAGGCLHADPDLGVLCPTGCQLQEALLQQERPIRNSVDELNNNVEAVSQTSSSSFQYMYLLKDLWQKRQKQVKDNENVVNEYSSELEKHQLYIDETVNSNIPTNLRVLRSILENLRSKIQKLESDVSAQMEYCRTPCTVSCNIPVVSGKECEEIIRKGGETSEMYLIQPDSSVKPYRVYCDMNTENGGWTVIQNRQDGSVDFGRKWDPYKQGFGNVATNTDGKNYCGLPGEYWLGNDKISQLTRMGPTELLIEMEDWKGDKVKAHYGGFTVQNEANKYQISVNKYRGTAGNALMDGASQLMGENRTMTIHNGMFFSTYDRDNDGWLTSDPRKQCSKEDGGGWWYNRCHAANPNGRYYWGGQYTWDMAKHGTDDGVVWMNWKGSWYSMRKMSMKIRPFFPQQ
chain 3: YVATRDNCCILDERFGSYCPTTCGIADFLSTYQTKVDKDLQSLEDILHQVENKTSEVKQLIKAIQLTYNPDESSKPNMIDAATLKSRKMLEEIMKYEASILTHDSSIRYLQEIYNSNNQKIVNLKEKVAQLEAQCQEPCKDTVQIHDITGKDCQDIANKGAKQSGLYFIKPLKANQQFLVYCEIDGSGNGWTVFQKRLDGSVDFKKNWIQYKEGFGHLSPTGTTEFWLGNEKIHLISTQSAIPYALRVELEDWNGRTSTADYAMFKVGPEADKYRLTYAYFAGGDAGDAFDGFDFGDDPSDKFFTSHNGMQFSTWDNDNDKFEGNCAEQDGSGWWMNKCHAGHLNGVYYQGGTYSKASTPNGYDNGIIWATWKTRWYSMKKTTMKIIPFNRLTIGEGQQHHLGGAKQVRPE
B2: rat single-chain tPA with arginine to serine point mutation at position 276 (R276S), 6xHis-tagged (enzyme)
chain: HHHHHHSYRATCRDEQTQTTYQQHQSWLRPMLRGNRVEYCRCNSGLAQCHSVPVRSCSEPRCFNGGTCQQALYFSDFVCQCPDGFVGKRCDIDTRATCFEGQGITYRGTWSTAENGAECINWNSSALSQKPYSARRPNAIKLGLGNHNYCRNPDRDVRPWCYVFKAGKYTTEFCSTPACPKGPTEDCYVGKGVTYRGTHSFTTSKASCLPWNSMILIGKTYTAWRANSQALGLGRHNYCRNPDGDAKPWCHVMKDRKLTWEYCDMSPCSTCGLRQYKQPLFSIKGGLFTDITSHPWQAAIFVKNKRSPGERFLCGGVLISSCWVLSAAHCFVERFPPHHLKVVLGRTYRVVPGEEEQTFEIEKYIVHKEFDDDTYDNDIALLQLRSDSSQCAQESSSVGTACLPDPDVQLPDWTECELSGYGKHEASSPFFSDRLKEAHVRLYPSSRCTSQHLFNKTITSNMLCAGDTRTGGNQDVHDACQGDSGGPLVCMIDKRMTLLGIISWGLGCGQKDVPGIYTKVTNYLNWIQDNMKQ
notes: Present only in its single-chain form; also called sc*-tPA; rat sc*-tPA
B3: rat tPA with tryptophan to arginine point mutation at position 254 (W254R), 6xHis-tagged (enzyme)
chain: B2 chain with W260R, S282R
notes: also called K2*-tPA; tPA W254R
B4: human tPA containing the triple mutation P125R W253R R275S, 6xHis tag and linker at the N-terminus (enzyme)
chain: HHHHHHGSSYQVICRDEKTQMIYQQHQSWLRPVLRSNRVEYCWCNSGRAQCHSVPVKSCSEPRCFNGGTCQQALYFSDFVCQCPEGFAGKCCEIDTRATCYEDQGISYRGTWSTAESGAECTNWNSSALAQKRYSGRRPDAIRLGLGNHNYCRNPDRDSKPWCYVFKAGKYSSEFCSTPACSEGNSDCYFGNGSAYRGTHSLTESGASCLPWNSMILIGKVYTAQNPSAQALGLGKHNYCRNPDGDAKPWCHVLKNRRLTREYCDVPSCSTCGLRQYSQPQFSIKGGLFADIASHPWQAAIFAKHRRSPGERFLCGGILISSCWILSAAHCFQERFPPHHLTVILGRTYRVVPGEEEQKFEVEKYIVHKEFDDDTYDNDIALLQLKSDSSRCAQESSVVRTVCLPPADLQLPDWTECELSGYGKHEALSPFYSERLKEAHVRLYPSSRCTSQHLLNRTVTDNMLCAGDTRSGGPQANLHDACQGDSGGPLVCLNDGRMTLVGIISWGLGCGQKDVPGVYTKVTNYLDWIRDNMRP
B5: human tPA containing a tryptophan to arginine point mutation at position 253 (W253R), 6xHis tag and linker at the N-terminus (enzyme)
chain: B4 chain with R133P, S283R
B6: human single-chain tPA with arginine to serine point mutation at position 275 (R275S), 6xHis tag and linker at the N-terminus (enzyme)
chain: B4 chain with R133P, R261W
B7: human tPA containing the double mutation W253R R275S, 6xHis tag and linker at the N-terminus (enzyme)
chain: B4 chain with R133P

Legend:
[1] = target: T1, rat wild type tPA (Rattus norvegicus), 6xHis-tagged (rat, UniProt P19637 33-559); assay: binding of tPA variants to a solid-phase fibrin surface on PVC plates (3 independent experiments, 12 doses)
T1 construct: mature; Produced in HEK-293 cells and purified on Ni-NTA; also called wt-tPA; rat wt-tPA

fibrin = target: B1; assay: as above
[2] = target: N-methyl-D-aspartate receptor on primary cultured mouse cortical neurons (mouse, UniProt P35438 19-938); assay: cell-based or functional assay

| Binder | neuronal cell death (LDH release, cortical neurons, 0.3 uM) [2] | further results |
| --- | --- | --- |
| B1 | – | Kd [1]: 0.26 nM |
| B2 | – | Kd (fibrin): 1.2 nM |
| B3 | – | Kd (fibrin): 0.5 nM |
| B4 | 51% | – |
| B5 | 64% | – |
| B6 | 62% | – |
| B7 | 62% | – |
